# Results from article PMC7596348, “The Iron-Sulfur Flavoprotein DsrL as NAD(P)H:Acceptor Oxidoreductase in Oxidative and Reductive Dissimilatory Sulfur Metabolism” (Frontiers in Microbiology, 2020).
# Assays:
# Test in all cases: purified protein
# purified protein [1] = substrate: NC(=O)c1ccc[n+]([C@@H]2O[C@H](COP(=O)(O)OP(=O)(O)OC[C@H]3O[C@@H](n4cnc5c(N)ncnc54)[C@H](O)[C@@H]3O)[C@@H](O)[C@H]2O)c1; format: biochemical, Chlorobaculum tepidum; conditions: reduced methylviologen as donor, pH 8.0, 40°C
# purified protein [2] = substrate: NC(=O)C1=CN([C@@H]2O[C@H](COP(=O)(O)OP(=O)(O)OC[C@H]3O[C@@H](n4cnc5c(N)ncnc54)[C@H](O)[C@@H]3O)[C@@H](O)[C@H]2O)C=CC1; format: biochemical, Chlorobaculum tepidum; conditions: 300 μM MTT, 50 mM potassium phosphate pH 8.0, 40°C
# purified protein [3] = substrate: NC(=O)c1ccc[n+]([C@@H]2O[C@H](COP(=O)(O)OP(=O)(O)OC[C@H]3O[C@@H](n4cnc5c(N)ncnc54)[C@H](O)[C@@H]3O)[C@@H](O)[C@H]2O)c1; format: biochemical, Allochromatium vinosum; conditions: reduced methylviologen as donor, pH 7.0, 30°C
# purified protein [4] = substrate: NC(=O)C1=CN([C@@H]2O[C@H](COP(=O)(O)OP(=O)(O)OC[C@H]3O[C@@H](n4cnc5c(N)ncnc54)[C@H](O)[C@@H]3O)[C@@H](O)[C@H]2O)C=CC1; format: biochemical, Allochromatium vinosum; conditions: 300 μM MTT, 50 mM potassium phosphate pH 7.0, 30°C
# purified protein [5] = substrate: NC(=O)c1ccc[n+]([C@@H]2O[C@H](COP(=O)(O)OP(=O)(O)OC[C@H]3O[C@@H](n4cnc5c(N)ncnc54)[C@H](OP(=O)(O)O)[C@@H]3O)[C@@H](O)[C@H]2O)c1; format: biochemical, Allochromatium vinosum; conditions: reduced methylviologen as donor, pH 7.0, 30°C
# purified protein [6] = substrate: NC(=O)C1=CN([C@@H]2O[C@H](COP(=O)(O)OP(=O)(O)OC[C@H]3O[C@@H](n4cnc5c(N)ncnc54)[C@H](OP(=O)(O)O)[C@@H]3O)[C@@H](O)[C@H]2O)C=CC1; format: biochemical, Allochromatium vinosum; conditions: 300 μM MTT, 50 mM potassium phosphate pH 7.0, 30°C
# purified protein [7] = substrate: NC(=O)c1ccc[n+]([C@@H]2O[C@H](COP(=O)(O)OP(=O)(O)OC[C@H]3O[C@@H](n4cnc5c(N)ncnc54)[C@H](OP(=O)(O)O)[C@@H]3O)[C@@H](O)[C@H]2O)c1; format: biochemical, Desulfurella amilsii; conditions: reduced methylviologen as donor, pH 6.5, 45°C
# purified protein [8] = substrate: NC(=O)C1=CN([C@@H]2O[C@H](COP(=O)(O)OP(=O)(O)OC[C@H]3O[C@@H](n4cnc5c(N)ncnc54)[C@H](OP(=O)(O)O)[C@@H]3O)[C@@H](O)[C@H]2O)C=CC1; format: biochemical, Desulfurella amilsii; conditions: 300 μM MTT, 50 mM potassium phosphate pH 6.5, 45°C
protein,measurement,setting,value
"CtDsrL-1B (Chlorobaculum tepidum TLS) (protein, full length (577 residues), C-terminal Strep-tag (… from primer), E. coli BL21(DE3) ΔiscR; primer-coded N-term MNAESNP, C-term GMGDGL) MNAESNPILDFATEYVYPAFSELTGTDKIVAFGDHSHKCPIYVPQTPPCTAECPAGEDIRAINRFLNGTDPSDDPLKSAWETATDTNPFPAVMGRICPHPCQSKCNRGVHDESVAINAVEQVLGNYGIEHNLKLKGPGADTGKRVAIIGGGPAGLSAAYQLRRKGHAVTIYDANEKLGGMVLYGIMGYRVDRKVLEAEIGRIIELGVETKMGVTIGKDITLEQLEAEYDAVFIAVGAQKGRALPVPGFEGTPGATNAIDFLKSYEVLGDDIPVGKHVVVIGDGNVAMDVARLALRLGSQATIISGVPREEMACFENEFDDAKNEGTTMHFLTGTVEVLGGASGVTGLRCTKMVKKEKGEEGWNSPIPFLRYKSNGESFEIEADMVVAAIGQATDLSGLGSAASGPWLKVDRNFRIPGREKLFGGGDALKVDLITTAVGHGRKAAYAIDAFLKGEPMPEEPYREITKPHKQDLLYFLHTPQAKRTSIKPEVVVGNHDELLEALTPEQAITESKRCMSCGFCFDCKQCVSFCPQEAITRFRDNPAGEKVYTDYTKCVGCHLCSLVCPCGYIQMGMGDGL",Km,purified protein [1],95.2 ± 9.9 µM
same,Vmax,purified protein [1],366 µmol/min/mg
same,kcat,purified protein [1],387 s⁻¹
same,kcat/Km,purified protein [1],4.06e+06 M⁻¹ s⁻¹
same,Km,purified protein [2],267.5 ± 20.5 µM
same,Vmax,purified protein [2],436 µmol/min/mg
same,kcat,purified protein [2],460 s⁻¹
same,kcat/Km,purified protein [2],1.72e+06 M⁻¹ s⁻¹
"AvDsrL-1A (Allochromatium vinosum DSM 180) (protein, full length, C-terminal Strep-tag (… from primer), E. coli BL21(DE3) ΔiscR; primer-coded N-term MATSS, C-term IKMGLGE; FAD and four [4Fe-4S] per monomer; homodimer) MATSSDEMKMKPTWRRFEDGEHVWDNLTDKIFNQDRSHKCPTYVHKTPPCQGSCPSGEDIRGWLQIVRGMEKPPQGMDWQEYAFRRSTDANPFPAMMGRVCPAPCQDGCNRNELEDFVGINSVEQFIGDTAIANGYTFEAPELDTGKRIAIVGGGPAGLAAAYQLRRKGHSCTIFEANDGLGGMFRFGIPGYRVPRDKLDAEIQRILDMGRVEVRLKTRIGTDVTVEQLEKDYDAILWAIGCQSGRGLPVPGWEGTPNCVTGVAFLKAFNEGRMKVTAGKVVCVGGGDTSIDVVSVARRLGHVNKSNPNELPETVIRDGYVAHDAASAAAAQGAEVTLTSLFTRDKMTASEHEVDDATREGVTILDGVMPVEVIKDANGRAIGLKVADCTMTDGRPTPVEGTERVLEADLIVSAIGQGGDLSGLEQLDNGRGLMDSDKFYQVPGKAGHFVAGDIIRPHLLTTAIGQAWIAADSIDAYVMQAEHKRRPKVDVHHFNLLDKLTEAHLAPESFVAGQAGDMRGTSDANYAIHNYEDRSGAEVIPHEELFLGHFNYVPRNLRKEEVPSADEVLGHFHERVIGLTEPEAIDEAKRCMSCGLCFECDNCVIFCPQDAVFRVDKGSRTTGRYVDTDYAKCIGCHICADVCPTGYIKMGLGE",Km,purified protein [3],123.9 ± 10.3 µM
same,Vmax,purified protein [3],145 µmol/min/mg
same,kcat,purified protein [3],176 s⁻¹
same,kcat/Km,purified protein [3],1.42e+06 M⁻¹ s⁻¹
same,Km,purified protein [4],86.7 ± 17.0 µM
same,Vmax,purified protein [4],11.2 µmol/min/mg
same,kcat,purified protein [4],13.5 s⁻¹
same,kcat/Km,purified protein [4],156000 M⁻¹ s⁻¹
same,Km,purified protein [5],2563.0 ± 272.1 µM
same,Vmax,purified protein [5],120 µmol/min/mg
same,kcat,purified protein [5],146 s⁻¹
same,kcat/Km,purified protein [5],57000 M⁻¹ s⁻¹
same,Km,purified protein [6],1667.0 ± 230.2 µM
same,Vmax,purified protein [6],4 µmol/min/mg
same,kcat,purified protein [6],4.9 s⁻¹
same,kcat/Km,purified protein [6],3000 M⁻¹ s⁻¹
"DaDsrL-2 (Desulfurella amilsii) (protein, full length, C-terminal Strep-tag (… from primer), E. coli BL21(DE3) ΔiscR; primer-coded N-term MAVVKVK, C-term PCGYIEKM; contains YRR motif) MAVVKVKKSIKSFSKPSGTEYSSDRPIYVEKRPPCSDTCPNGEQVREFLQYIAQAQDYGRTYEEALEGAFYIIAQTNSMPATTGRICPHPCESRCNRKDKDSAVNINASEMFIGDFAVQNKLPLKKLDETYDAKVAVIGSGPSGLSCAYHLARRGVKVTIFEKEEKPGGLLYYGIPNFRLPKEIVSAEIQRIVDLGVDIKYGKAVGKDIGIEDLKKEFDCIYVATGAYKPEKPNLENIDNIKGVYSGLEFLYHFAKGERIDIGKDVVVVGADTAADAAMISKRWGANVTFAYRRTVPDKETFDKKASREAIDAYEEGITFQFATVPVELVSENGKLTGVKFQKIKVGAKDERGHAAQVENIGEPFLVKADAFIYSVGQKPDYSGLEKLLGQSEGFVKIKDNYQVEGQDKVFAGGDVVGPRLMYVTTAIGHGFAAAVNMIEYLTGKKVIEKDTRKVIESDKMHLDLYEAKPRHERKLRDPIERIKDFEPFMNGLSMEEFIEEAKRCMSCGLCFDCGNCFTYCSHSGVKKLPKGQHYEFHLETCDGCMKCFENCPCGYIEKM",Km,purified protein [7],22.0 ± 1.9 µM
same,Vmax,purified protein [7],88.8 µmol/min/mg
same,kcat,purified protein [7],94.3 s⁻¹
same,kcat/Km,purified protein [7],4.2e+06 M⁻¹ s⁻¹
same,Km,purified protein [8],124.5 ± 10.5 µM
same,Vmax,purified protein [8],103 µmol/min/mg
same,kcat,purified protein [8],110 s⁻¹
same,kcat/Km,purified protein [8],870000 M⁻¹ s⁻¹
